The source of these data is patent US20100204445A1.

B1: recombinant JNK3 with an I49T-substituted dockerin polypeptide fused at the C-terminal (protein, not shown: large carriers; small tags and cut ends)
chain: MGLKGDVNNDGAIDALDIAALKKAILTQSTSNINLTNADMNNDGNIDATDFAQLKVKLLN
B2: recombinant JNK3 of which a wild-type dockerin was fused at the C-terminal (protein, not shown: large carriers; small tags and cut ends)
chain: B1 chain with T49I
B3: recombinant JNK3 of which an L16T/I49T-substituted dockerin polypeptide was fused at the C-terminal (protein, not shown: large carriers; small tags and cut ends)
chain: B1 chain with L16T
B4: recombinant JNK3 of which a wild-type dockerin was fused at the N-terminal (protein, not shown: large carriers; small tags and cut ends)
chain: B1 chain with T49I
modifications: not fully specified (C-terminus)
B5: recombinant JNK3 of which an L16T/I49T-substituted dockerin polypeptide is fused at the N-terminal (protein, not shown: large carriers; small tags and cut ends)
chain: B1 chain with L16T
B6: recombinant JNK3 of which an I49T-substituted dockerin polypeptide is fused at the N-terminal (protein, not shown: large carriers; small tags and cut ends)
chain: B1 chain
B7: recombinant JNK3 of which an I49S-substituted dockerin polypeptide is fused at the N-terminal (protein, not shown: large carriers; small tags and cut ends)
chain: B1 chain with T49S
B8: recombinant JNK3 of which an I49V-substituted dockerin polypeptide is fused at the N-terminal (protein, not shown: large carriers; small tags and cut ends)
chain: B1 chain with T49V
B9: recombinant JNK3 of which an I49N-substituted dockerin polypeptide was fused at the N-terminal (protein, not shown: large carriers; small tags and cut ends)
chain: B1 chain with T49N
B10: recombinant JNK3 of which an I49G-substituted dockerin polypeptide is fused at the N-terminal (protein, not shown: large carriers; small tags and cut ends)
chain: B1 chain with T49G
B11: recombinant fused protein in which a dockerin polypeptide with the 48th amino acid alanine (A) substituted with serine (S) was fused at the N-terminal of … (protein, not shown: large carriers; small tags and cut ends)
chain: B1 chain with A48S, T49I
modifications: not fully specified (C-terminus)

By Kd is commonly meant the free concentration of one partner at which half of the binding sites on the other are occupied at equilibrium, for simple one-to-one binding. By koff is commonly meant the first-order rate constant of dissociation. For orientation: kon means the rate constant with which the complex forms.

Where a chain is given by its changes, count along the chain named. Numbers in names are those of the source. Ends that are not written are not given here.

The first assay concerns the target recombinant cohesin (CipA of Clostridium josui, BAA32429) (Clostridium josui). The assay can be described thus: batch elution of C-terminal fusion from cohesin carrier with 5 mM EGTA at 4 C, SDS-PAGE densitometry, 360 min set to 100.
With B1, the rate of eluted recombinant protein (%) at 5 min amounted to 83.1%, the rate of eluted recombinant protein (%) at 30 min was determined as 100%, the rate of eluted recombinant protein (%) at 60 min came to 100% and the rate of eluted recombinant protein (%) at 360 min was found to be 100%.
With B2, the rate of eluted recombinant protein (%) at 5 min is 1.5%, the rate of eluted recombinant protein (%) at 30 min amounted to 10.5%, the rate of eluted recombinant protein (%) at 60 min came to 20.9% and the rate of eluted recombinant protein (%) at 360 min amounted to 100%.
B3: the rate of eluted recombinant protein (%) at 5 min came to 55.7%, the rate of eluted recombinant protein (%) at 30 min came out at 100%, the rate of eluted recombinant protein (%) at 60 min is 100% and the rate of eluted recombinant protein (%) at 360 min was found to be 100%.

The next assay has the same target. The experiment in a line: SPR (Biacore T-100), fusion captured via anti-JNK3 antibody on Protein A chip, cohesin as analyte, +Ca2+ (1 mM CaCl2), no EGTA. On the technique in general: Surface plasmon resonance follows binding to a sensor surface in real time, without labels.
As for B4, the Kd worked out at 6.5 nM, the koff stood at 0.0053 s⁻¹ and the kon was 810000 M⁻¹ s⁻¹.
For B5, the Kd turned out to be 3.2 nM, the koff is 0.015 s⁻¹ and the kon worked out at 4.9e+06 M⁻¹ s⁻¹.
As to B6, the Kd was 3.8 nM, the koff came out at 0.006 s⁻¹ and the kon was found to be 1.6e+06 M⁻¹ s⁻¹.
On the same counts, the results for B7 are 4.5 nM, 0.0045 s⁻¹ and 1e+06 M⁻¹ s⁻¹.
For B8, the Kd was 7.6 nM, the koff is 0.0033 s⁻¹ and the kon was 430000 M⁻¹ s⁻¹.
As to B9, the Kd is 3.7 nM, the koff was determined as 0.005 s⁻¹ and the kon is 1.3e+06 M⁻¹ s⁻¹.
Regarding B10, the Kd was determined as 2.2 nM, the koff amounted to 0.0066 s⁻¹ and the kon worked out at 3e+06 M⁻¹ s⁻¹.

The target is the same in another assay. The assay can be described thus: SPR (Biacore T-100), same format, 5 mM EGTA in running buffer.
Turning to B4, the Kd is 3.9 nM, the koff came to 0.0079 s⁻¹ and the kon amounted to 2e+06 M⁻¹ s⁻¹.
Taken in the same sequence, the figures for B5 were 12 nM, 0.029 s⁻¹ and 250000 M⁻¹ s⁻¹.
Taken in the same sequence, the figures for B6 were 19 nM, 0.023 s⁻¹ and 1.2e+06 M⁻¹ s⁻¹.
For B7, the Kd was found to be 67 nM, the koff came out at 0.048 s⁻¹ and the kon was determined as 710000 M⁻¹ s⁻¹.
As to B8, the Kd is 8.1 nM, the koff amounted to 0.011 s⁻¹ and the kon turned out to be 1.4e+06 M⁻¹ s⁻¹.
As for B9, the Kd worked out at 56 nM, the koff was 0.089 s⁻¹ and the kon was 1.6e+06 M⁻¹ s⁻¹.
For the molecule B10, the Kd is 170 nM, the koff was 0.05 s⁻¹ and the kon stood at 300000 M⁻¹ s⁻¹.

For a further assay the target is unchanged. The experiment in a line: batch elution of N-terminal fusion from cohesin carrier with 5 mM EGTA at 4 C, SDS-PAGE densitometry, 360 min set to 100.
Turning to B4, the rate of eluted recombinant protein (%) at 5 min was 11.5%, the rate of eluted recombinant protein (%) at 30 min was 28.8%, the rate of eluted recombinant protein (%) at 60 min was determined as 39.6% and the rate of eluted recombinant protein (%) at 360 min turned out to be 100%.
Regarding B5, the rate of eluted recombinant protein (%) at 5 min was 55.2%, the rate of eluted recombinant protein (%) at 30 min came out at 100%, the rate of eluted recombinant protein (%) at 60 min is 100% and the rate of eluted recombinant protein (%) at 360 min came to 100%.
Take B6: the rate of eluted recombinant protein (%) at 5 min came to 66.5%, the rate of eluted recombinant protein (%) at 30 min is 100%, the rate of eluted recombinant protein (%) at 60 min was found to be 100% and the rate of eluted recombinant protein (%) at 360 min was 100%.
For B7, the rate of eluted recombinant protein (%) at 5 min is 74.7%, the rate of eluted recombinant protein (%) at 30 min was 100%, the rate of eluted recombinant protein (%) at 60 min was determined as 100% and the rate of eluted recombinant protein (%) at 360 min is 100%.
Consider B8, for which the rate of eluted recombinant protein (%) at 5 min was 25.3%, the rate of eluted recombinant protein (%) at 30 min amounted to 53.3%, the rate of eluted recombinant protein (%) at 60 min came out at 68.2% and the rate of eluted recombinant protein (%) at 360 min was determined as 100%.
Take B9: the rate of eluted recombinant protein (%) at 5 min is 65.9%, the rate of eluted recombinant protein (%) at 30 min turned out to be 94.1%, the rate of eluted recombinant protein (%) at 60 min was found to be 100% and the rate of eluted recombinant protein (%) at 360 min was found to be 100%.
Regarding B10, the rate of eluted recombinant protein (%) at 5 min was 100%, the rate of eluted recombinant protein (%) at 30 min came to 100%, the rate of eluted recombinant protein (%) at 60 min amounted to 100% and the rate of eluted recombinant protein (%) at 360 min is 100%.

A further assay has the same target. The experiment in a line: SPR as in Example 7, under the action of a chelating agent.
Turning to B11, the Kd stood at 5.2 nM.
